Assay results published in the supplement of paper PMC7877785.
± gives the uncertainty stated by the source.

Experiment: self-splicing fitness, log relative to wild type (ln ratio); higher = more splicing; Tetrahymena group I intron in knt gene, E. coli kanamycin selection, DiMSum; sequences stand for … in CUCUCU…GGAGGGAAAAGUUAUCAGGCAUGCACCUGGUAGCUAGUCUUUAAACCAAUAGAUUGCAUCGGUUUAAAAGGCAAGACCGUCAAAUUGCGGGAAAGGGGUCAACAGCCGUUCAGUACCAAGUCUCAGGGGAAACUUUGAGAUGGCCUUGCAAAGGGUAUGGUAAUAAGCUGACGGACAUGGUCCUAACCACGCAGCCAAGUCCUAAGUCAACAGAUCUUCUGUUGAUAUGGAUGCAGUUCACAGACUAAAUGUCGGUCGGGGAAGAUGUAUUCUUCUCAUAAGAUAUAGUCGGACCUCUCCUUAAUGGGAGCUAGCGGAUGAAGUGAUGCAACACUGGAGCCGCUGGGAACUAAUUUGUAUGCGAAAGUAUAUUGAUUAGUUUUGGAGUACUCGUGGUCG
Summary of the method: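 DiMSum derived fitness as the error-weighted combination of fold changes across replicates, kanamycin versus no kanamycin, normalised to wild type. E. coli BL21(DE3) held the library, which randomised all eight P1ex-region intron nucleotides within the knt kanamycin-resistance gene on pET-22b(+). Six replicate transformations grew overnight at 37°C or 30°C on LB agar with or without 25 μg/mL kanamycin, also containing 100 μg/mL carbenicillin, 50 μM IPTG and 0.2% rhamnose, and pooled colonies were amplicon-sequenced on an Illumina HiSeq 2500.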

Row | Sequence | self-splicing fitness (ln) (30 °C) | self-splicing fitness (ln) (37 °C)
1 | UUGCAGCAAUAUUACGCACA | -0.577 ± 0.11 | 0.406 ± 0.15
2 | GGAAAGCAAUAUUACGAGUG | -3.38 ± 0.12 | -1.85 ± 0.1
3 | GAACAGCAAUAUUACGUUCC | -2.88 ± 0.36 | 
4 | UCGUAGCAAUAUUACGCAGU | -3.54 ± 0.39 | -2.51 ± 0.28
5 | UCACAGCAAUAUUACGGUGU | -2.41 ± 0.17 | -2.23 ± 0.14
6 | UAAAAGCAAUAUUACGACUA | 0.337 ± 0.089 | 0.733 ± 0.12
7 | CCACAGCAAUAUUACGUAUA | -4.05 ± 0.24 | -2.84 ± 0.23
8 | GUGAAGCAAUAUUACGUAAU | -1.19 ± 0.057 | -0.668 ± 0.069
9 | UGCAAGCAAUAUUACGUCAU | -3.29 ± 0.13 | -2.17 ± 0.14
10 | UAUUAGCAAUAUUACGCCUA | -0.107 ± 0.15 | -0.038 ± 0.14
11 | CAGAAGCAAUAUUACGUAAU | -3.4 ± 0.15 | -2.85 ± 0.21
12 | CAACAGCAAUAUUACGAGAU | -3.74 ± 0.2 | -1.79 ± 0.15
13 | AUCCAGCAAUAUUACGCAAC | -2.21 ± 0.13 | -0.741 ± 0.12
14 | AUUUAGCAAUAUUACGAGCG | -2.66 ± 0.23 | -1.05 ± 0.2
15 | AGUCAGCAAUAUUACGAUAG | -1.12 ± 0.14 | -2.32 ± 0.23
16 | UAGUAGCAAUAUUACGCAUU | -3.97 ± 0.21 | -1.52 ± 0.14
17 | GAAUAGCAAUAUUACGGGCC | -1.6 ± 0.26 | -1.13 ± 0.37
18 | GUCCAGCAAUAUUACGAUAU | -0.337 ± 0.056 | 0.114 ± 0.065
19 | UGAAAGCAAUAUUACGUCUA | -0.288 ± 0.12 | 0.146 ± 0.11
20 | CUAUAGCAAUAUUACGUAUC | -5.21 ± 0.32 | -2.48 ± 0.14
21 | AAUUAGCAAUAUUACGGCGG | -1.81 ± 0.11 | -0.193 ± 0.13
22 | UGGCAGCAAUAUUACGCUGA | -2.79 ± 0.21 | -1.17 ± 0.12
23 | CGCUAGCAAUAUUACGACUU | -2.41 ± 0.12 | -0.983 ± 0.15
24 | GUGGAGCAAUAUUACGAGAU | -3.23 ± 0.36 | -2.22 ± 0.41
25 | AGUCAGCAAUAUUACGCUUA | -0.891 ± 0.12 | 0.278 ± 0.14
26 | AGCGAGCAAUAUUACGCAGU | -4.48 ± 0.28 | -2.78 ± 0.25

Row | Sequence | self-splicing fitness (ln) (30 °C) | self-splicing fitness (ln) (37 °C)
27 | UUGCAGCAAUAUUACGCAUA | -1.6 ± 0.13 | -0.643 ± 0.12
28 | ACCAAGCAAUAUUACGGUUC | -3.36 ± 0.15 | -3.46 ± 0.25
29 | GGAGAGCAAUAUUACGCGCU | -2.69 ± 0.25 | -1.67 ± 0.28
30 | UCUAAGCAAUAUUACGAGCC | -2.34 ± 0.34 | 
31 | UCAUAGCAAUAUUACGGAUA | -1.51 ± 0.23 | -2.59 ± 0.33
32 | AUCCAGCAAUAUUACGUCUC | -1.84 ± 0.12 | -0.869 ± 0.11
33 | UUCCAGCAAUAUUACGCGAU | -2.85 ± 0.21 | -1.32 ± 0.18
34 | AGACAGCAAUAUUACGUUAA | -3.26 ± 0.14 | -1.27 ± 0.087
35 | AUGCAGCAAUAUUACGUAAA | -1.44 ± 0.092 | -1.14 ± 0.13
36 | CCGAAGCAAUAUUACGGUCC | -3.68 ± 0.46 | -2.26 ± 0.26
37 | UCAUAGCAAUAUUACGUUCG | -1.03 ± 0.098 | -0.686 ± 0.1
38 | CGGAAGCAAUAUUACGUUCA | -0.293 ± 0.13 | 0.673 ± 0.16
39 | GGGCAGCAAUAUUACGUUAA | -1.19 ± 0.1 | -0.46 ± 0.11
40 | CGAAAGCAAUAUUACGGACG | -2.73 ± 0.21 | -2.25 ± 0.22
41 | CUGCAGCAAUAUUACGUGGA | -2.92 ± 0.16 | -3.04 ± 0.2
42 | CUACAGCAAUAUUACGGUGU | -3.23 ± 0.13 | -2.49 ± 0.14
43 | UUGCAGCAAUAUUACGACGA | 0.0944 ± 0.089 | 0.407 ± 0.12
44 | AGGCAGCAAUAUUACGCCUU |  | -3.04 ± 0.27
45 | AAUGAGCAAUAUUACGUAUU | -3.41 ± 0.14 | -2.48 ± 0.16
46 | ACAGAGCAAUAUUACGCUCA | -1.29 ± 0.2 | -1.26 ± 0.18
47 | UUAGAGCAAUAUUACGCAUU | -3.24 ± 0.38 | 
48 | UUGUAGCAAUAUUACGGACU | -1.65 ± 0.14 | -0.723 ± 0.16
49 | UUGAAGCAAUAUUACGCUCU | -1.82 ± 0.12 | -0.916 ± 0.12
50 | GACUAGCAAUAUUACGAAUG | -2.65 ± 0.18 | -1.93 ± 0.17
51 | UACCAGCAAUAUUACGGCUA | 0.185 ± 0.066 | 0.554 ± 0.089
52 | UAAGAGCAAUAUUACGAUCU | -2.51 ± 0.24 | -2.86 ± 0.36

Row | Sequence | self-splicing fitness (ln) (30 °C) | self-splicing fitness (ln) (37 °C)
53 | GAUAAGCAAUAUUACGGGCA | -1.65 ± 0.12 | -0.177 ± 0.13
54 | GCCGAGCAAUAUUACGCUGU | -2.17 ± 0.14 | -1.57 ± 0.14
55 | CGUCAGCAAUAUUACGAGCG | -3.52 ± 0.15 | -1.04 ± 0.15
56 | CGCUAGCAAUAUUACGAAUU | -2.77 ± 0.16 | -2.58 ± 0.28
57 | CUACAGCAAUAUUACGGUGC | -4.58 ± 0.28 | -2 ± 0.17
58 | UGCGAGCAAUAUUACGUUGC |  | -1.17 ± 0.33
59 | UGAGAGCAAUAUUACGUAAU | -3.22 ± 0.21 | -2.22 ± 0.26
60 | AGGCAGCAAUAUUACGCGGG | -2.65 ± 0.14 | -2.55 ± 0.17
61 | UGAGAGCAAUAUUACGGGCU | -2.32 ± 0.37 | -2.6 ± 0.38
62 | CAAUAGCAAUAUUACGUCAA | -3.04 ± 0.22 | -2.01 ± 0.28
63 | CCAGAGCAAUAUUACGAUGU | -3.69 ± 0.23 | -1.83 ± 0.17
64 | UAAAAGCAAUAUUACGGUCG | -0.35 ± 0.087 | -0.0674 ± 0.1
65 | CCUGAGCAAUAUUACGGAAG | -2.82 ± 0.15 | -1.29 ± 0.12
66 | CAUUAGCAAUAUUACGGUGA | -2.79 ± 0.19 | -1.92 ± 0.13
67 | AUACAGCAAUAUUACGACCU | 0.331 ± 0.084 | 0.122 ± 0.094
68 | UCUUAGCAAUAUUACGAGGU | -3.29 ± 0.29 | -1.82 ± 0.2
69 | GGAUAGCAAUAUUACGGGGC | -3.69 ± 0.23 | -1.95 ± 0.16
70 | GCCAAGCAAUAUUACGCAUA | -1.3 ± 0.09 | -0.709 ± 0.085
71 | CGAAAGCAAUAUUACGUAGA | -2.43 ± 0.092 | -1.49 ± 0.12
72 | AGACAGCAAUAUUACGUCUC | -2.87 ± 0.19 | -3.53 ± 0.35
73 | GCUUAGCAAUAUUACGUUUC | -1.2 ± 0.099 | -0.547 ± 0.11
74 | CGAGAGCAAUAUUACGCACA | -2.47 ± 0.27 | 
75 | GACGAGCAAUAUUACGCGGA | -2.74 ± 0.23 | -2.87 ± 0.36
76 | AGAUAGCAAUAUUACGUAUG | -2.57 ± 0.15 | -2.3 ± 0.17
77 | GAUGAGCAAUAUUACGACGA | -1.5 ± 0.13 | -1.3 ± 0.15
